Earlier results as cited in patent KR20200047176A, “투라노스의 제조방법” (주식회사 삼양사, priority 2018, dated 2020).

Conditions: 2 M sucrose substrate

B1: NpAS: amylosucrase from Neisseria polysaccharea, known prior enzyme (protein, UniProt Q9ZEU2 1-636, looked up)
Amylosucrase: MLTPTQQVGLILQYLKTRILDIYTPEQRAGIEKSEDWRQFSRRMDTHFPKLMNELDSVYGNNEALLPMLEMLLAQAWQSYSQRNSSLKDIDIARENNPDWILSNKQVGGVCYVDLFAGDLKGLKDKIPYFQELGLTYLHLMPLFKCPEGKSDGGYAVSSYRDVNPALGTIGDLREVIAALHEAGISAVVDFIFNHTSNEHEWAQRCAAGDPLFDNFYYIFPDRRMPDQYDRTLREIFPDQHPGGFSQLEDGRWVWTTFNSFQWDLNYSNPWVFRAMAGEMLFLANLGVDILRMDAVAFIWKQMGTSCENLPQAHALIRAFNAVMRIAAPAVFFKSEAIVHPDQVVQYIGQDECQIGYNPLQMALLWNTLATREVNLLHQALTYRHNLPEHTAWVNYVRSHDDIGWTFADEDAAYLGISGYDHRQFLNRFFVNRFDGSFARGVPFQYNPSTGDCRVSGTAAALVGLAQDDPHAVDRIKLLYSIALSTGGLPLIYLGDEVGTLNDDDWSQDSNKSDDSRWAHRPRYNEALYAQRNDPSTAAGQIYQGLRHMIAVRQSNPRFDGGRLVTFNTNNKHIIGYIRNNALLAFGNFSEYPQTVTAHTLQAMPFKAHDLIGGKTVSLNQDLTLQPYQVMWLEIA
turanose conversion: 50.9%
